Experimental data taken from the nanobody polyreactivity screen of Harvey et al. (2022).

test: yeast display, Sf9 membrane polyspecificity reagent, FACS + sequencing; frameworks hold sequencing errors
Method in brief: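 In a synthetic yeast display library (Saccharomyces cerevisiae BJ5465), nanobody expression was induced with galactose for 36–48 hours. FACS gates were set low and high (top ~1%) using anti-HA fluorescence for expression and streptavidin fluorescence for binding of the Sf9 membrane reagent. Each polyreactivity label is drawn from the gate of origin.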

| Sequence | polyreactivity (PSR sort gate) |
| --- | --- |
| QVQLVESGGGLVQAGGSLRLSCAASGSTFNRYAMGWYRQAPGKERELVAAISWSGTRTYYADSVKGRFTISRDNAKNTVYLQMNSLKPEDTAVYYCAARRLYAGHQYDYWGQGTQVTVSS | high polyreactivity |
| QVQLVETGGGLVQAGGSLRLSCAASGFTFYYYAMGWYRQAPGKERELVAAINRSGGSTYYADSLKGRFTISRDNAKNTVYLQMNSLKPEDTAVYYCAAPYVGGSSHGYWGQGTQVTVSS | high polyreactivity |
| QVQLVESGGGLVQAGGSLRLSCAASGFIFTYYAMGWYRQAPGKERELVARITSGGASTYYADSVKGRFTISRDNAKNTVYLQMNSLKPEDTAVYYCAAQARGWGYDYWGQGTQVTVSS | low polyreactivity |
| QVQLVESGGGLVQAGGSLRLSCAASGFTLQGYAMGWYRQAPGKERELVAAIRWIGTSTYYADSVKGRFTISRDIAKNTVYLQMNSLKPEDTAVYYCAAYRYNTPFGYWGQGTQVTVSS | high polyreactivity |
| QVQLVESGGGLVQAGGSLRLSCAASGFIFDYYAMGWYRPAPAKERELVAAISCRGGTTYYADSVKGRFTISRDNAKNTVYLQMNSLKPEDTAVYYCAAGRFYGFGYGYWGQGTQVTVSS | high polyreactivity |
| QVQLVESGGGLVQAGGSLRLSCAASGSIFRGNAMGWYRQAPGKERELVASISYSGGSTYYADSVKGRFTISRDTAKNTVYLQMNSLKPEDTAVYYCAADESVAYPYSGYQYYRHIYDYWGQGTQVTVSS | low polyreactivity |
| QVQLVESGGGLVQAGGSLRLSSAASGSTFRYNAMGWYRQAPGKERELVAAITSTGDSTYYADSVKGRFTISRDNAKNTVYLQMNSLKPEDTAVYYCAARSYASPGWRYEYWGQGTQVTVSS | low polyreactivity |
| QVHLVESGGGLVQAGGILLLSCAASGYDMGWYRQAPGKERELVAAISRGGSTSYADSVKGRFTISRDNAKNTVYLQMNSLKPEDTAVYYCAARYGSYRVGYDYWGQGTQVTVSS | low polyreactivity |
| QVQLVESGGGLVQAGGSLRLSCAASGRIFPGYAMGWYRPAPGKERELVAAISKSGVSTYYADSVKGRFTISCDNAKNTVYLQMNSLKPEDTAVYYCAAVSYSYFSRGYRTFQLAYWGQGTQVTVSS | high polyreactivity |
| QVQLRESGGGLVQAGGSLSLSCAASGTIFYSRYMGWYRQAPGKEREFVASISSGGNTNYADSVKGRFTISRDNAKNTVYLQMNSLKPEDTAVYYCAVNTGLITTCPYWGQGTQVTVSS | high polyreactivity |
| QVQLVESGGGLVQAGGSLRLSCAASGFTFNDYAMGWYRQAPGKERELVAAIDWSGGRTYYADSVKGRFTISRDNAKNTVYLQMNSLKPEDTAVYYCATEYYDGYFPTFDYDYWGQGTQVTVSS | low polyreactivity |
| QVQLVESGGGLVQAGGSLRLSCAASGGIFQGYAMGWYRQAAGKERELVAAITRGGSTNYADSVKGRFTISRDNAKNTVYLQMNSLKPEDTAVYYFAARPRWFKGYDYWGQGTQVTVSS | high polyreactivity |
| QVQLVESGGGLVQAGGSLRLICAATGFTFHNNVMGWYRQAPGKERELVATISKSGGSTYYADSVKGRFTISRDNAKNTVYLQMNRLKPEDTAVYYCARRYRDYGRYGYWGQGTQVTVSS | high polyreactivity |
| QVQLVESGGCLVQAGGSLRLSCAASGRTFINNAMGWYRQAPGKERELVAAISWDGGRTYYADSVKGRFTISRDNAKNTVYLQMNSLKPEDTAVYYCNAQPNYAYHGEDDYWGQGTQVTVSS | high polyreactivity |
| QVQLVESGGGLVQAGGSLRLSCAASGRTFRLYAMGWYRQAPGKERELVAAITRGGRTNYADSVKGRFTISRDNAKNTVYLQMNSLNPEDTAVYYCAARYVERHTDYYYWGQGTQVTVSS | low polyreactivity |
| QVQLVESGGGLVQAGGSLRLGCAASGFTLWYYNIGWYRQAPGKERELVASISWSGGSTYYADSVKGRFTISRDNAKNTVYLQMNSLKPEDTALYYCNVQSYDRIYDYWGQGTQVTVSS | high polyreactivity |
